We go through four compounds from article PMC8878318, “DogCatcher allows loop-friendly protein-protein ligation” (Cell Chemical Biology, 2022).

For one assay, the target named is sfGFP-SpyTag003 Loop A. Nature of the assay: isopeptide bond formation followed by SDS-PAGE with Coomassie densitometry; 5 μM of each protein in solution, PBS pH 7.5 (pH 7.4 in p-0004), 25°C; second-order rate constant from 1/[Catcher] against time.
The target in assay [1] is Gre2p-SpyTag003 Loop B (Saccharomyces cerevisiae) (UniProt Q12068). The assay is described as above.
The target of assay [2] is AviTag-DogTag-MBP (Streptococcus pneumoniae TIGR4). The description is as above.
Assay [3] has as its target Gre2p-DogTag Loop B (Saccharomyces cerevisiae | Streptococcus pneumoniae TIGR4) (UniProt Q12068). The description is as above.
The target of assay [4] is sfGFP-DogTag Loop A (Streptococcus pneumoniae TIGR4). The assay is described as above.
The target of assay [5] is HaloTag7SS-DogTag (Streptococcus pneumoniae TIGR4). As to the kind of experiment: isopeptide bond formation followed by SDS-PAGE with Coomassie densitometry; reaction toward completion: 10 or 20 μM DogCatcher with 10 or 20 μM HaloTag7SS-DogTag, PBS pH 7.5, 25°C, 200 min.
For a further assay, the target named is T1, Gre2p (Saccharomyces cerevisiae, UniProt Q12068).
T1 construct: gene GRE2; wild-type Gre2p without loop insertion, pET28-Gre2p synthetic codon-optimised gene, expressed in E. coli BL21 DE3 RIPL, Ni-NTA purified
T1 sequence (Q12068 1-342): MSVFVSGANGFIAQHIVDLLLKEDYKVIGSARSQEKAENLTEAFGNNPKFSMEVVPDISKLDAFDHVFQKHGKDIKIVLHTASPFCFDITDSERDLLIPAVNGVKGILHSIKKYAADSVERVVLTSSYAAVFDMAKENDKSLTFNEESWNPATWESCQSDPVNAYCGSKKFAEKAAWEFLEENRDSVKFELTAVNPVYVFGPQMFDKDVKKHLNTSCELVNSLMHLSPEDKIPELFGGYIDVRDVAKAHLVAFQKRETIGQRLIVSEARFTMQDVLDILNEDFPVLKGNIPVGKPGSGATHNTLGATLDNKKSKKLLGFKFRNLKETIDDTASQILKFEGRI
Nature of the assay: NADPH oxidation, absorbance at […] nm. It is filed as biochemical. The conditions noted are these: 1.5 mM isovaleraldehyde; 0.25 mM NADPH; 100 mM potassium phosphate pH 7.4; 25 °C.

Assay [6] has as its target AviTag-R2Tag-MBP (Streptococcus pneumoniae TIGR4). Nature of the assay: isopeptide bond formation followed by SDS-PAGE with Coomassie densitometry; 5 μM of each protein in solution, PBS pH 7.5 (pH 7.4 in p-0004), 25°C; second-order rate constant from 1/[Catcher] against time.

Regarding SpyCatcher003 (designed binder), the results for the second-order rate constant of covalent reaction (in the assay with sfGFP-SpyTag003 Loop A; in assay [1]) were 87 M⁻¹ s⁻¹ and 156 M⁻¹ s⁻¹, respectively.

Consider DogCatcher (designed binder), for which the second-order rate constant of covalent reaction is 760 M⁻¹ s⁻¹ in assay [2], 850 M⁻¹ s⁻¹ in assay [3] and 1000 M⁻¹ s⁻¹ in assay [4]. In assay [5], this compound registered a percent of DogCatcher reacted (2-fold excess of HaloTag7SS-DogTag) of 98%. In assay [5], this compound yielded a percent of HaloTag7SS-DogTag reacted (2-fold excess of DogCatcher) of 98%.

As to `NC(=O)C1=CN([C@@H]2O[C@H](COP(=O)(O)OP(=O)(O)OC[C@H]3O[C@@H](n4cnc5c(N)ncnc54)[C@H](OP(=O)(O)O)[C@@H]3O)[C@@H](O)[C@H]2O)C=CC1` [NADPH], on Gre2p, the “NADPH oxidation, absorbance at 340 nm” value is “Reduction of isovaleraldehyde to isoamyl alcohol by Gre2p is nicotinamide adenine dinucleotide phosphate (NADPH) dependent”.

For R2Catcher (domain or fragment), the values for the second-order rate constant of covalent reaction in assay [2] and in assay [6] were 30 M⁻¹ s⁻¹ and 3 M⁻¹ s⁻¹, respectively.
